This is an account of results in the RNAGym collection of RNA variant scans (doi:10.7554/elife.80360).

B1: Hairpin Ribozyme (parent)
chain: GUCCUCUUUCACGUGCGCGUGAAAGAGAGAAGUGAACCAGAGAAACACACGUUGUGGUAUAUUACCUGGUA

The data set covers variants of B1. Kind of data set: self-cleavage, relative activity (ratio to wild type); higher = more cleavage; co-transcriptional.
For U8G U14C, the self-cleavage stood at 0.814. For the variant U9A A26C, the self-cleavage was found to be 0.364.

U9A A26U: the self-cleavage is 0.424. As to U8G A28C, the self-cleavage is 0.433. Consider U8G A28U, for which the self-cleavage was determined as 0.514.

In the case of U9A A23U, the self-cleavage came to 0.472. Turning to U9C U55G, the self-cleavage amounted to 0.266.

For U9C C12U, the self-cleavage was 0.665.

Regarding U9G C65G, the self-cleavage came out at 0.207.

With U8A G32C, the self-cleavage turned out to be 0.111. On to U9A U14G, for which the self-cleavage was 0.74. Turning to U9A U14C, the self-cleavage came to 0.62. For the variant U9A C18U, the self-cleavage worked out at 0.775. With U9G A36U, the self-cleavage came to 0.431.

For the variant U9G A36G, the self-cleavage amounted to 0.793. As for U9G A36C, the self-cleavage is 0.381. As for U9A U53C, the self-cleavage is 0.732. Take U9A U53G: the self-cleavage was 0.703. As for U8G G29U, the self-cleavage is 0.112. As for U8G G29A, the figure is 0.154; as for U9A A43G, 0.179. As for U9A A43C, the figure is 0.142. Consider U9A A59C, for which the self-cleavage turned out to be 0.0956. The same measure for U9A A59G: 0.154; for U9G A44U: 0.162; for U9A A28C: 0.266. For U9A A28G, the self-cleavage amounted to 0.748. The same measure for U9C C10A: 0.696. With U9C C10U, the self-cleavage was determined as 0.527. U8C U63G: the self-cleavage came out at 0.188. As for U8G A30C, the self-cleavage was found to be 0.141.

Consider U8G A30G, for which the self-cleavage came out at 0.119. As to U8G A71C, the self-cleavage is 1.34.

As for U9A A39U, the self-cleavage turned out to be 0.335.

Regarding U9A G68A, the self-cleavage turned out to be 0.223. Consider U8G U60C, for which the self-cleavage is 0.845. As for U8G U60A, the figure is 0.647; as for U9A G21C, 0.465. Consider U8G U63G, for which the self-cleavage was found to be 0.172. The same measure for U8G U63C: 0.155. With U9C U63A, the self-cleavage stood at 0.131.

Take U8C A26U: the self-cleavage was 0.336.

U8G G34U: the self-cleavage came to 1.28. For U9A G19A, the self-cleavage turned out to be 0.588.

On to U8C C50U, for which the self-cleavage stood at 0.172. As for U9C A30C, the figure is 0.0706; as for U9G C18A, 0.707.

Take U8G G25C: the self-cleavage came to 0.0293. As to U8C C48A, the self-cleavage was 0.136. The same measure for U9C U70G: 0.687; for U9A A45G: 0.172. The same measure for U8G G69U: 0.29; for U8A C18A: 0.872. Take U8G A23G: the self-cleavage was 0.759. For U9G G29C, the self-cleavage was 0.129.

As to U9G G29A, the self-cleavage was found to be 0.0566. Regarding U9G G29U, the self-cleavage came out at 0.1. U9A A24C: the self-cleavage stood at 0.514. Take U9A A24U: the self-cleavage is 0.466. For U9C A41G, the self-cleavage came to 0.706. Turning to U9G A45C, the self-cleavage worked out at 0.0983. The same measure for U9A U52G: 0.472; for U9A A47G: 0.0847; for U9A A47U: 0.135.

With U8C U20A, the self-cleavage was 0.604. As to U8C U20G, the self-cleavage is 0.439. As to U8A G68A, the self-cleavage was 0.179.

Take U8C G34U: the self-cleavage was 1.32. For U8A G40U, the self-cleavage was 0.109.

Take U9C G32U: the self-cleavage worked out at 0.0498. With U8C G51A, the self-cleavage worked out at 0.855. On to U8C G51U, for which the self-cleavage stood at 0.901. For the variant U8C G51C, the self-cleavage was determined as 0.701. Regarding U8G G57C, the self-cleavage is 0.192. For U8G G57A, the self-cleavage turned out to be 0.102.

U9C C50U: the self-cleavage was 0.314. Consider U9C C50G, for which the self-cleavage is 0.258. As for U9C G21C, the figure is 0.479. Turning to U9C G21A, the self-cleavage was determined as 0.5. The same measure for U9G G17U: 0.847; for U9G G17A: 0.571; for U8C A30C: 0.201. U8G A11G: the self-cleavage was found to be 0.704. Take U9C A71U: the self-cleavage worked out at 0.68. With U9C A64U, the self-cleavage was 0.0987. Take U9C A64C: the self-cleavage was found to be 0.201.

In the case of U9C A64G, the self-cleavage came out at 0.381.

U8C G32A: the self-cleavage came out at 0.198. On to U8G G51U, for which the self-cleavage turned out to be 0.886. On to U9C C37U, for which the self-cleavage was found to be 0.529. Consider U9C C37G, for which the self-cleavage came to 0.595. Turning to U8G G68U, the self-cleavage was found to be 0.268. For the variant U8G G68A, the self-cleavage came out at 0.119. Regarding U8C A35G, the self-cleavage amounted to 0.385. On to U8G A24U, for which the self-cleavage turned out to be 0.595. Take U8G A24C: the self-cleavage came to 0.592. Take U9C G19A: the self-cleavage amounted to 0.704. In the case of U8A G42U, the self-cleavage is 0.261. As for U8A G42C, the figure is 0.147; as for U9A C38U, 0.388.

U8A U52C: the self-cleavage was 0.647. As for U8G C38G, the self-cleavage turned out to be 0.268. In the case of U9C G25A, the self-cleavage was determined as 0.24. U9C G25C: the self-cleavage turned out to be 0.314. Regarding U8C A24C, the self-cleavage was 0.196.

Turning to U8C A24G, the self-cleavage came to 0.502. Regarding U9C A47G, the self-cleavage was determined as 0.123. Take U9A U60G: the self-cleavage turned out to be 0.484. As for U8A U33G, the self-cleavage is 0.0531.

In the case of U8A U33A, the self-cleavage stood at 0.0975. As for U8C A41C, the figure is 0.72; as for U8C A41G, 0.458; as for U9A G54C, 0.3.

Take U8G G13U: the self-cleavage is 0.438.

For U8G G56U, the self-cleavage was determined as 0.169. As for U8A G15A, the figure is 0.826; as for U9C A11U, 0.411.

For U8A G54A, the self-cleavage came to 0.396. On to U8A C12A, for which the self-cleavage was determined as 0.606. Regarding U8G C37G, the self-cleavage worked out at 0.191. In the case of U8G C37U, the self-cleavage was found to be 0.487.

U8C G25A: the self-cleavage was 0.197. Consider U8C G25C, for which the self-cleavage is 0.148. In the case of U9G A35G, the self-cleavage is 0.546. Turning to U9A G13C, the self-cleavage is 0.399. As for U8C G15U, the self-cleavage stood at 0.932. As for U8C G15C, the figure is 0.565; as for U9G C16G, 0.431.

With U8G A26G, the self-cleavage came to 0.673. As for U9A U62G, the figure is 0.122. In the case of U8C C18G, the self-cleavage turned out to be 0.528. With U9C G13U, the self-cleavage stood at 0.469.

In the case of U8C A22C, the self-cleavage was 0.209.

For U8C A22G, the self-cleavage worked out at 0.515. U9A U70G: the self-cleavage worked out at 0.532.

Turning to U8C G19C, the self-cleavage stood at 0.232. Take U8G G32U: the self-cleavage is 0.0934. In the case of U8G G32C, the self-cleavage turned out to be 0.12. As for U8C A36G, the figure is 0.928; as for U8C C46U, 0.172; as for U8A G34C, 0.902. Consider U8A G34U, for which the self-cleavage came out at 1.05. Turning to U8G A39G, the self-cleavage is 0.263.

As to U8G A35C, the self-cleavage amounted to 0.715. The same measure for U9A A49U: 0.179; for U9G A11U: 0.566; for U9C G27C: 0.109. As for U8G G42U, the self-cleavage was 0.254. As for U8G G42C, the figure is 0.284. In the case of U9A A71G, the self-cleavage was 0.707. As for U8G U62G, the figure is 0.163; as for U9C A44U, 0.247; as for U8C C65G, 0.143. For U8G G27A, the self-cleavage stood at 0.43. As for U8G G27C, the figure is 0.139; as for U9G A22G, 0.79. In the case of U9C U62G, the self-cleavage is 0.199. U8A G25C: the self-cleavage worked out at 0.155.

For U8A U63C, the self-cleavage came to 0.218. For U8C, the self-cleavage was 0.739. As for U8G, the self-cleavage was 0.764. The same measure for U9A G42U: 0.253; for U9G A61G: 0.257; for U9G A49C: 0.182. For the variant U9G A49U, the self-cleavage amounted to 0.163. U8G A64G: the self-cleavage was found to be 0.476. The same measure for U8C G56C: 0.12.
